From CN114349855A (BAISIS MEDICAL DIAGNOSIS SCIENCE AND TECH BEIJING LIMITED …, dated 2022) come the findings set out here.

B1: 抗体 克隆号7D7G3D4 (antibody, V domains shown)
VH: EVQLVESGGGLVQPGGSLRLSCAASGLTVSSNHMSWVRQAPGKGLEWVSIIYSGGSTYYADSVKGRFTISRDNSKNTLYLQMDSLRAEDTTVYYCARAQGGWELPGAGYYYFNGMDFWGQGTTVTVSS
VL: DIQMTQSPSSLSASVGDRVTITCRASQSISTYLNWYQQKPGKAPKLLIYAASNLQSGVPSRFSGSASGTDFTLTISSLQPEDFATYFCQQSYSTSFTFGPGTKVDIK
B2: 抗体 克隆号9A5F6 23F1 (antibody, V domains shown)
VH: QVQLVESGGGVVQPGRSLRLSCAASGFTFSSYAMYWVRQAPGKGLECVAGISYDGSNKYYADSVKGRFTISRENSKNTLYLQMNSLISEDTAVYYCARAEWDYWGQGTLVTVSS
VL: SYELTQPSSVSVSPGQTARITCSGDVLAKKYARWFQQKPGQAPVLVIYKDSERPSGIPERFSGSSSGTTVTLTISGAQVEDEADYYCYSAADNNLGVFGGGTKL
B3: 抗体 克隆号9A5D9 22G3 (antibody, V domains shown)
VH: EVQLVESGGGLVKPGGSLRLSCAASGFTFSSYSMNWVRQAPGKGLEWVSSISRSSSYIYYADSVMGRFTISRDNAKNSLYLQMNSLRADDTAVYYCARDRGSGNYYVDGLDIWGQGTMVTVSS
VL: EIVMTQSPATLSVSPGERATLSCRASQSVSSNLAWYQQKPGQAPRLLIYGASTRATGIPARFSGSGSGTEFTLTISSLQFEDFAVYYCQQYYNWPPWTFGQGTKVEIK

The experiment addresses T1, 新型冠状病毒野生型Spike蛋白 (新型冠状病毒 (SARS-CoV-2) 野生型, UniProt P0DTC2 16-1213).
T1 construct: also called 野生型S蛋白
Kind of experiment: ELISA, S protein coated at 2 μg/mL.
B1: the binding result is recorded as “no binding (tested: 1 μg/mL)”. B2: the binding result is reported as “no binding (tested: 1 μg/mL)”.

Regarding B3, the binding result is listed as “no binding (tested: 1 μg/mL)”.
